{"source": "paper PMC5668902", "proteins": {"B1": {"name": "Oxalate decarboxylase (OxDC), wild type, His6-tagged (Bacillus subtilis subsp. subtilis str. 168) (protein)", "chain": "MKKQNDIPQPIRGDKGATVKIPRNIERDRQNPDMLVPPETDHGTVSNMKFSFSDTHNRLEKGGYAREVTVRELPISENLASVNMRLKPGAIRELHWHKEAEWAYMIYGSARVTIVDEKGRSFIDDVGEGDLWYFPSGLPHSIQALEEGAEFLLVFDDGSFSENSTFQLTDWLAHTPKEVIAANFGVTKEEISNLPGKEKYIFENQLPGSLKDDIVEGPNGEVPYPFTYRLLEQEPIESEGGKVYIADSTNFKVSKTIASALVTVEPGAMRELHWHPNTHEWQYYISGKARMTVFASDGHARTFNYQAGDVGYVPFAMGHYVENIGDEPLVFLEIFKDDHYADVSLNQWLAMLPETFVQAHLDLGKDFTDVLSKEKHPVVKKKCSK"}}, "substrate": "O=C(O)C(=O)O", "experiment": "purified protein", "conditions": "pH 4.2 acetate buffer, 25 °C, free enzyme, not immobilised"}
{"protein": "B1", "values": [{"measurement": "Km", "value": "12 ± 3", "unit": "mM"}, {"measurement": "kcat", "value": "158 ± 13", "unit": "s⁻¹"}, {"measurement": "kcat/Km", "value": "13000 ± 3000", "unit": "M⁻¹ s⁻¹"}]}
